Test results published in PMC9372576, “Interaction of the gas vesicle proteins GvpA, GvpC, GvpN, and GvpO of Halobacterium salinarum” (Frontiers in Microbiology, 2022).

T1: GvpC C-terminal fragment Cterm (Halobacterium salinarum, UniProt P24574 329-382)
T1 construct: GvpC of Halobacterium salinarum, aa 329-382, the globular C-terminal domain with a zinc-finger motif; GFP fragment at the N- or C-terminus; source: Hfx. volcanii WR340 transformant, split-GFP fusion in living cells
T1 sequence (looked up): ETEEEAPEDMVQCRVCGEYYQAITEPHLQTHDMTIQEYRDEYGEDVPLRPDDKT

T2: GvpA fused to NGFP or CGFP (Halobacterium salinarum, UniProt P08958 1-76)
T2 construct: the entire GvpA of the p-vac region of Halobacterium salinarum; gvpA reading frame; NGFP (mGFP2 up to aa 157) or CGFP (from aa 158) at the N- or C-terminus through a 14 aa (pJAS) or 16 aa (pWLfdx) linker; with GvpF and its variants CGFP stood at the C-terminus of GvpA (AC); also called NA; AN; source: Hfx. volcanii WR340 transformant, split-GFP fusion in living cells
T2 sequence (looked up): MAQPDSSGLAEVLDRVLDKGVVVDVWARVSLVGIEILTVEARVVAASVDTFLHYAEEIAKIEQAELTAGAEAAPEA

T3: GvpC fused to NGFP or CGFP (Halobacterium salinarum, UniProt P24574 1-382)
T3 construct: GvpC of the p-vac region of Halobacterium salinarum; gvpC amplified from the p-vac region; GFP fragment at the N- or C-terminus, 14 or 16 aa linker; source: Hfx. volcanii WR340 transformant, split-GFP fusion in living cells
T3 sequence (looked up): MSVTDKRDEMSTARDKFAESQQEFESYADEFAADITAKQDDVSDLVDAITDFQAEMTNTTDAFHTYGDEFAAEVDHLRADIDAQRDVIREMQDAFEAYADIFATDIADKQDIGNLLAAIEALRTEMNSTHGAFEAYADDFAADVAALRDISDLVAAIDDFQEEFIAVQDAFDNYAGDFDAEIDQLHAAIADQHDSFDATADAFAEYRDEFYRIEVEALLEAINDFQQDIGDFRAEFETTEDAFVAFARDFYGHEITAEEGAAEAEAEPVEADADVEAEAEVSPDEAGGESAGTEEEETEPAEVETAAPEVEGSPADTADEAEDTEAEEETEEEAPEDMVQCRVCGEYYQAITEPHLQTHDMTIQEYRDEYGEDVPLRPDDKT

T4: GvpN fused to NGFP or CGFP (Halobacterium salinarum, UniProt Q9HI16 1-347)
T4 construct: GvpN of the p-vac region of Halobacterium salinarum; gvpN amplified from the p-vac region; GFP fragment at the N- or C-terminus, 14 or 16 aa linker; source: Hfx. volcanii WR340 transformant, split-GFP fusion in living cells
T4 sequence (looked up): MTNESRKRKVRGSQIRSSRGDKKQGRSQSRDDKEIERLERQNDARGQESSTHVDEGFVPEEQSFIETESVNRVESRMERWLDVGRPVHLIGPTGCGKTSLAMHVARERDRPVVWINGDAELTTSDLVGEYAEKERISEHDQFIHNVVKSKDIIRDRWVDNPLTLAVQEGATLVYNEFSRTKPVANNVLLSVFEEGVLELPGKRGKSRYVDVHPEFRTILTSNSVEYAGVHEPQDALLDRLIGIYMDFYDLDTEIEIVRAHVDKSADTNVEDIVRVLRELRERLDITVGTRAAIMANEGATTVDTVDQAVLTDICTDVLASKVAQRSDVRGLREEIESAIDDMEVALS

T5: GvpA fragment A1-43 (Halobacterium salinarum, UniProt P08958 1-43)
T5 construct: GvpA of Halobacterium salinarum, alpha1-beta1-beta2; vector described in earlier work; source: Hfx. volcanii WR340 transformant, split-GFP fusion in living cells
T5 chain (looked up): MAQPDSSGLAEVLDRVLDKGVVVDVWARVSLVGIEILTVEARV

T6: GvpA fragment A20-47 (Halobacterium salinarum, UniProt P08958 20-47)
T6 construct: GvpA of Halobacterium salinarum, the two beta-sheets beta1-beta2; vector described in earlier work; source: Hfx. volcanii WR340 transformant, split-GFP fusion in living cells
T6 chain (looked up): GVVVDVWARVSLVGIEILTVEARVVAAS

T7: GvpA fragment A44-76 (Halobacterium salinarum, UniProt P08958 44-76)
T7 construct: GvpA of Halobacterium salinarum, mainly helix alpha3; vector described in earlier work; source: Hfx. volcanii WR340 transformant, split-GFP fusion in living cells
T7 chain (looked up): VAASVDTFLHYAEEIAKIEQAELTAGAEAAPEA

T8: GvpA fragment A1-34 (Halobacterium salinarum, UniProt P08958 1-34)
T8 construct: GvpA of Halobacterium salinarum, alpha1 plus beta-sheet 1; vector described in earlier work; source: Hfx. volcanii WR340 transformant, split-GFP fusion in living cells
T8 chain (looked up): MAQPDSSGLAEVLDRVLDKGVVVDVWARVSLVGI

B1: GvpA fragment A1-22 (domain or fragment, Halobacterium salinarum, UniProt P08958 1-22, looked up)
chain: MAQPDSSGLAEVLDRVLDKGVV
notes: GvpA of Halobacterium salinarum, the first 22 aa including alpha-helix 1; vector described in Winter et al., 2018 and Voelkner et al., 2020; source: Hfx. volcanii WR340 transformant, split-GFP fusion in living cells

What was measured:
Test in all cases: split reporter (BiFC, NanoBiT); split-GFP (NGFP and CGFP of salt-stable mGFP2) in Hfx. volcanii transformants, 24 h 37 °C then 24 h 30 °C; relative fluorescence (rf) against the wild type; the highest of eight tag combinations is given
GvpA fragment A1-22 = target: B1; conditions: partners not purified
[1] = target: T1, GvpC C-terminal fragment Cterm; conditions: partners not purified
[2] = target: T2, GvpA fused to NGFP or CGFP; conditions: partners not purified
[3] = target: T3, GvpC fused to NGFP or CGFP; conditions: partners not purified
[4] = target: the molecule itself
[5] = target: T4, GvpN fused to NGFP or CGFP; conditions: partners not purified
GvpA fragment A1-43 = target: T5, GvpA fragment A1-43; conditions: partners not purified
GvpA fragment A20-47 = target: T6, GvpA fragment A20-47; conditions: partners not purified
GvpA fragment A44-76 = target: T7, GvpA fragment A44-76; conditions: partners not purified
GvpA fragment A1-34 = target: T8, GvpA fragment A1-34; conditions: partners not purified

Row | Binder | relative fluorescence (rf) (GvpA fragment A1-22) | relative fluorescence (rf) [1] | relative fluorescence (rf) [2] | relative fluorescence (rf) [3] | relative fluorescence (rf) [4] | relative fluorescence (rf) [5] | relative fluorescence (rf) (GvpA fragment A1-43) | relative fluorescence (rf) (GvpA fragment A20-47) | relative fluorescence (rf) (GvpA fragment A44-76) | relative fluorescence (rf) (GvpA fragment A1-34)
1 | GvpC N-terminal fragment Nterm (domain or fragment, Halobacterium salinarum, UniProt P24574 10-130, looked up, GvpC of Halobacterium salinarum, amino acids 10-130, the first three alpha-helical repeats; GFP fragment at the N- or C-terminus; source: Hfx. volcanii WR340 transformant, split-GFP fusion in living cells) MSTARDKFAESQQEFESYADEFAADITAKQDDVSDLVDAITDFQAEMTNTTDAFHTYGDEFAAEVDHLRADIDAQRDVIREMQDAFEAYADIFATDIADKQDIGNLLAAIEALRTEMNSTH | 3.57 LAU/mm^2 | 10.1 LAU/mm^2 | < 2.5 LAU/mm^2 |  |  |  |  |  |  | 
2 | GvpO fused to NGFP or CGFP (natural protein, Halobacterium salinarum, UniProt O51968 1-119, looked up, GvpO of the p-vac region of Halobacterium salinarum; gvpO amplified from the p-vac region; GFP fragment at the N- or C-terminus, 14 or 16 aa linker; source: Hfx. volcanii WR340 transformant, split-GFP fusion in living cells) MADPANDRSEREEGGEDDETPPASDGNPSPSANSFTLSNAQTRAREAAQDLLEHQFEGMIKAESNDEGWRTVVEVVERNAVPDTQDIIGRYEITLDGTGDVTGYELLERYRRGDMKEEL | 3 LAU/mm^2 |  |  | < 5 LAU/mm^2 | > 10 LAU/mm^2 | 12.5 LAU/mm^2 |  |  |  | 
3 | B1 |  |  |  |  |  |  | ≤ 0.48 LAU/mm^2 | ≤ 0.48 LAU/mm^2 | ≤ 0.48 LAU/mm^2 | ≤ 0.48 LAU/mm^2
